Measured values taken from US7507716B2, “Method for treating pain with prolactin antagonists” (Board of Regents, The University of Texas System, priority 2005, dated 2009).

Key:
[1] = system: acutely dissociated TG neurons; experiment: Calcium imaging, PRL effect on capsaicin-evoked Ca2+ influx; type: cell-based, rat
Source text: The binding of PRL to the PRL-R activates a variety of intracellular signaling pathways in non-neuronal cells (Bole-Feysot et al. 1998), some of which are known to be involved in the sensitization of TRPV1 in nociceptors (Cesare and McNaughton, 1996). To evaluate whether PRL sensitizes capsaicin activation of TRPV1, changes in calcium (Ca^2+) influx were quantified in acutely dissociated TG neurons. FIG. 4A depicts the results of Ca^2+ imaging experiments performed in acutely dissociated TG neurons. Data are presented as mean % of vehicle±SEM (n=30/group, ***=p<0.001; two-way ANOVA). FIG. 4B depicts representative traces of Ca^2+ imaging experiments performed in neurons from proestrous rats. Neurons were treated with 40 nM PRL or vehicle for 10 min followed by a 40 sec capsaicin (30 nM) application. […] Data are presented as mean F340/F380±SEM (n=8/group; error bars are SEM). […] PRL appears to increase the magnitude of capsaicin-evoked Ca^2+ influx in TG neurons by about 71% compared to that observed in TG neurons not exposed to PRL, whereas PRL had no effect on capsaicin-evoked calcium influx in neurons from OVX control rats (FIG. 4A). […]
Calcium Imaging: TG cells cultured on coverslips were loaded with the cell-permeable calcium sensitive dye FURA 2-AM (1 ug/ml) (Molecular Probes, Eugene, Oreg.) for 30 min at 37° C. in Standard External Solution (SES) of the following composition in mM: 140 NaCl, 5 KCl, 2 CaCl2, 1 MgCl2, 10 glucose and 10 HEPES, pH 7.4. […] Fluorescence images were collected in 5 sec intervals throughout the experiment, analyzed, and the F340/F380 ratio calculated by the Methafluor Software (MethaMorph, Web Universal Imaging Corporation, Downingtown, Pa.). […] The magnitude of calcium influx was determined by subtracting the averaged baseline 30 sec prior to the capsaicin stimulus from the peak achieved by the capsaicin stimulation for each cell (ratiometric method, ΔF340/F380).

TG neurons = experiment: Patch clamp, capsaicin-induced currents (Icap); type: cell-based, rat
Experimental: Since application of PRL rapidly increases capsaicin-induced calcium accumulation and neuropeptide release, the role of PRL in modulating capsaicin-induced currents (Icap) was examined. TRPV1 desensitization of cultured TG neurons was induced through the repeated application of 100 nM capsaicin to the cultures (Vellani et al., 2001; Bonnington and McNaughton, 2003). The sub-maximal concentration of capsaicin used was effective in inducing desensitization and permitted the investigation PRL-evoked re-sensitization or further sensitization of TRPV1. […] Data are presented as mean±SEM of PRL-treated ΔIcap (3rd Icap-2^ndIcap) normalized to vehicle treated ΔIcap, (n=8-12/group, *=p<0.05 and **=p<0.01; two-way ANOVA). […] Acutely dissociated TG neurons from female rats were locally pretreated with vehicle or PRL (40 nM) for 60 sec, washed for 60 sec and subjected to a single capsaicin pulse (40 sec, 0.1 nM-5 μM). Data are shown as mean±SEM (n=12-20/group, *=p<0.05 and ***=p<0.001 vehicle vs. PRL; two-way ANOVA). FIGS. 5C and 5D depict representative traces of Icap recordings from intact (FIG. 5C) and OVX (FIG. 5D) female rat TG neurons. Concentration of applied CAP and PRL are indicated. The duration CAP and PRL treatment was 30 sec and 60 sec, respectively. The magnitude of the second capsaicin-evoked inward currents (Icap) peak was subtracted from the third Icap peak to calculate the difference (ΔIcap). Data were normalized to the vehicle treated ΔIcap.
Patch Clamp Electrophysiology: All recordings were performed in whole-cell voltage-clamp (Vh=−60 mV) configuration. Recordings were acquired at 22-24° C. from the somata of neurons (15-45 pF) using an Axopatch200B amplifier and pCLAMP9.0 software (Axon Instruments, Union City, Calif.). Data were filtered at 0.5 kHz and sampled at 2 kHz. Borosilicate pipettes (Sutter, Novato, Calif.) were polished to resistances of 3-5 MΩ in pipette solution. Access resistance was compensated (40-80%) to 7-10 MΩ values when appropriate. Cell diameters were calculated using d=√[100*Cm/π], where d (μm) is cell diameter and Cm (pF) is membrane capacitance.
Standard external solution (SES) had the composition as described above. […] Drugs were applied using a fast, computer controlled pressure-driven 8-channel system (ValveLink8; AutoMate Scientific, San Francisco, Calif.).
FIG. 11B summarizes the effect of adding rhPRL on Icap of cultured TG neurons from male, female and OVX female rats. Number of recorded neurons and neurons in which effects were observed are indicated above the bars. The recordings were performed in whole-cell voltage clamp c(Vh=−60 mV) configuration. Solutions are SES and SIS.

B1: PRL: Ovine PRL [oPRL-21, BIO] provided by NHPP; prolactin polypeptide hormone (protein, UniProt P01240 31-229, looked up)
Prolactin: TPVCPNGPGNCQVSLRDLFDRAVMVSHYIHNLSSEMFNEFDKRYAQGKGFITMALNSCHTSSLPTPEDKEQAQQTHHEVLMSLILGLLRSWNDPLYHLVTEVRGMKGVPDAILSRAIEIEEENKRLLEGMEMIFGQVIPGAKETEPYPVWSGLPSLQTKDEDARHSAFYNLLHCLRRDSSKIDTYLKLLNCRIIYNNNC
[1]; PRL 40 nM 10 min, capsaicin 30 nM 40 sec, neurons from intact female rats
  increase in magnitude of capsaicin-evoked Ca2+ influx: about 71%
[1]; PRL 40 nM, neurons from OVX control rats
  effect on capsaicin-evoked calcium influx: had no effect
[1]; PRL 40 nM, neurons from proestrous rats
  Ca2+ influx evoked by PRL on its own: did not evoke Ca^2+ influx on its own
TG neurons; PRL 40 nM 60 sec, single capsaicin pulse 0.1 nM-5 μM, female rat TG neurons
  effect of PRL pretreatment on capsaicin potency (Icap): increased capsaicin potency
TG neurons; TRPV1-desensitized TG neurons from naive female rats, 100 nM capsaicin
  concentration of maximal potentiation of Icap: 40 nM
TG neurons; TRPV1-desensitized TG neurons from naive female rats, 100 nM capsaicin, read-out: EC50 of Icap sensitization
  EC50: 0.27 nM
TG neurons; rat OVX TG neurons
  effect on Icap: had no observed effect
